Results taken from patent EP4360658A1, “COMPOUNDS FOR DETECTION OF ORAL INFLAMMATION” (Julius-Maximilians-Universität Würzburg, priority 2022, dated 2024).
Several values for one entry are separate records, joined by “and”; a condition that tells them apart may be missing. Equal values may be shown once. Blank lines part the entries; values can stand above or below the molecule they belong to. *1 amine or outer side, *2 acyl side, *3 side chain or, on linkers, in order; H or OH if unused. Where a SMILES comes first, the peptide text is derived from it. Primed or numbered codes have the meaning given here. Where no end group is shown, it is not given here. [ ]: non-standard residue; d: D form. The star is where a group is joined. Aha′ = its azide, alkyne or alkene has reacted where a group follows in round brackets; Den = denatonium (bitter payload), attached at the C-terminus via CH2-NH2; DBCO‑Sulfo‑Cy5 = fluorescent dye clicked to Aha; AFDye488‑DBCO = fluorescent dye clicked to Aha; X1 = CC[N+](CC)(CC(=O)[*:2])Cc1ccc(CN[*:1])cc1; NH(2,6-Me2-phenyl) = Cc1cccc(C)c1N*

Columns and labels:
MMP-1 = biological target: T1, MMP-1 (Homo sapiens, UniProt P03956); assay: Sensor cleavage by MMP-1; type: biochemical; conditions: for cleavage rate (multiplexing): sensors in mixture, 17.5 nM MMP-1, incubation 15 minutes
T1 construct: purchased Merck Millipore
T1 sequence (P03956 100-469): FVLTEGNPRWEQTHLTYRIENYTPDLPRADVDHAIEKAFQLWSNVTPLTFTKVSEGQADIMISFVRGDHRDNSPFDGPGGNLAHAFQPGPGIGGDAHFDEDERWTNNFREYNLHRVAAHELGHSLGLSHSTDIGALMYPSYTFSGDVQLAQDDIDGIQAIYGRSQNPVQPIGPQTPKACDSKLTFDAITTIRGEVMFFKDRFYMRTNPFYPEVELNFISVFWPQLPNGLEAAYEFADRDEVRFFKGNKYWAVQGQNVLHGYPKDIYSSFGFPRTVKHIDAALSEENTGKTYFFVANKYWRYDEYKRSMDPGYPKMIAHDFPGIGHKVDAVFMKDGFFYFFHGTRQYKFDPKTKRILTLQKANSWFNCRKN
Method: (§1) Pro-Matrix-metalloproteinases (MMP-1, MMP-8, and MMP-9) (Merck Millipore, Burlington, MA, USA) were activated prior usage. To activate Pro-MMPs a fresh 50 mM 4-Aminophenylmercuric acetate (APMA) stock solution in 0.1 M NaOH was prepared. The stock solution was added in a 10:1 (v/v) ratio to Pro-MMPs (Pro-MMPs:APMA) to reach a final concentration of 5 mM APMA. The solution was incubated for 3 h at 37 °C without agitation. Following incubation, the activated MMPs were stored in aliquots at -80 °C.
Lyophilized sensors and Y3 were solubilized in MMP buffer (200 mM NaCl, 50 mM Tris-HCI, 5 mM CaCl2, 1 µM ZnCl2, 0.05 % Brij35 at pH 6.8-7.0) to 1 mM stock solutions. Cleavage was performed at 37 °C under rigorous shaking in 30 µL MMP buffer containing 0.1 mM of the respective sensor/peptide and 900 ng/mL MMP-8, or a molar equivalent of MMP-1 or MMP-9 for single cleavage conditions. Cleavage of sensors in mixture was performed with sensor concentrations of 25 µM for each sensor. The reaction was stopped via addition of 5 mM EDTA final concentration.
(§2) Experiments were performed n = 5. Cleavage was analyzed via fluorescent detection via HPLC with following wavelengths: SP3 (absorption: 646 nm; emission: 661 nm), SP5 (absorption: 494 nm; emission: 517 nm), SP7 (absorption: 553 nm; emission: 566 nm) and SN3 (absorption: 280 nm; emission: 350 nm). Y3 cleavage was analyzed as described before. Cleavage percent was analyzed by comparing the AUC of the main peak from the compound incubated with MMP and in absence of MMP. Cleavage percent was then normalized by multiplying cleavage results with a correction factor. The correction factor was determined individually for every experiment/MMP by dividing Y3 cleavage results acquired in protease sensitive linker identification study by cleavage results of Y3 in individual sensor cleavage experiments (Figure 3 D-F).

MMP-9 = biological target: T2, MMP-9 (Homo sapiens, UniProt P14780); assay: Sensor cleavage by MMP-9; type: biochemical
T2 construct: purchased Merck Millipore
T2 sequence (P14780 107-707 limits assumed): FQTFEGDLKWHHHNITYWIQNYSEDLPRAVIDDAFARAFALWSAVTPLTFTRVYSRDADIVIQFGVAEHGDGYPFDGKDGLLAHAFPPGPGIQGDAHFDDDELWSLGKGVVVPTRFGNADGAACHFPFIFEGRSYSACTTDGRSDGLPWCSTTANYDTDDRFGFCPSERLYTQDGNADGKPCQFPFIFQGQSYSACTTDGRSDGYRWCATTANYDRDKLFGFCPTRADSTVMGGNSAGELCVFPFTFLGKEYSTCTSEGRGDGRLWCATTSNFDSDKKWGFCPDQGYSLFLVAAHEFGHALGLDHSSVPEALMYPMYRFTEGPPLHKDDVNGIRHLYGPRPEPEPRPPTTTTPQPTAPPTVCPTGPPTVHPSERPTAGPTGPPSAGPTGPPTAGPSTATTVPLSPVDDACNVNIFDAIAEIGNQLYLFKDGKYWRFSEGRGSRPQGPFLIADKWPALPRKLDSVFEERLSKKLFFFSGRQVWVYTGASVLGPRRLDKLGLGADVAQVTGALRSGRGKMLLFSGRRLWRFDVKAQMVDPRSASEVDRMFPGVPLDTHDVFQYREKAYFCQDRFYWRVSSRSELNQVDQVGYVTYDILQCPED
Method: as §1
(§3) Lyophilized sensors and Y3 were solubilized in MMP buffer (200 mM NaCl, 50 mM Tris-HCI, 5 mM CaCl2, 1 µM ZnCl2, 0.05 % Brij35 at pH 6.8-7.0) to 1 mM stock solutions. […]
as §2, with “Cleavage percent was then normalized by multiplying cleavage results with a correction factor.” left out

MMP-8 = biological target: T3, MMP-8 (Homo sapiens, UniProt P22894); assay: Sensor cleavage by MMP-8; type: biochemical; conditions: sensors in mixture, 17.5 nM MMP-8, incubation 15 minutes
T3 construct: purchased Merck Millipore
T3 sequence (P22894 101-467): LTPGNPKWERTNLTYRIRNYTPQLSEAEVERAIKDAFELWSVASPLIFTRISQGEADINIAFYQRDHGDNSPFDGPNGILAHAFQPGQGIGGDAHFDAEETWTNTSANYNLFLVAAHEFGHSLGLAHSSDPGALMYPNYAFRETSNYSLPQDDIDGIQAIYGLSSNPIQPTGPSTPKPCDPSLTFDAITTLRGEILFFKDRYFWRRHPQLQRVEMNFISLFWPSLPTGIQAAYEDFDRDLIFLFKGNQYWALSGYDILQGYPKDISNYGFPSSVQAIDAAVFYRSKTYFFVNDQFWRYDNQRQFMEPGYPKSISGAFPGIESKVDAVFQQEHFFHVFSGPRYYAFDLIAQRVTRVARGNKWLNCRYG
Method: as §1, §3
as §2, with “Cleavage percent was then normalized by multiplying cleavage results with a correction factor.” left out

[1] = Sensor cleavage in human saliva; type: biochemical; conditions: for cleavage in saliva from patients compared to saliva from healthy donors: periodontitis patients vs. healthy donors
Method: Lyophilized sensors were solubilized in MMP buffer to 0.05 mM each and mixed with saliva 1:1 (v/v) to reach a final concentration of 25 µM per sensor. The solution was incubated for 15 min at 37 °C under rigorous shaking and the reaction was stopped via addition of 5 mM EDTA final concentration. The samples were diluted 1:2 with acetonitrile, 1:5 with water (1:10 total dilution) and analyzed via HPLC as described before. Cleavage efficiency was analyzed by comparing the AUC of the newly formed peaks compared to the total AUC of the combined peaks. Peaks with LU < 1 were considered below the limit of detection and set to 0.5 LU for further analysis.
The study participants were recruited from patients visiting the department of Periodontology of the University Hospital of Würzburg, Germany between Oct/2019 to Dec/2020. Periodontally healthy patients as well as patients with periodontal diseases of varying severity (gingivitis, periodontitis) were included. The periodontally diseased patients were in different stages of treatment (untreated patients before active initial therapy, treated recall patients in regular supportive aftercare). Eligibility criteria were age 18 to 99 years. Patients of both sexes, with and without periodontal disease were included in the study.
Periodontal examinations were obtained from all study participants comprising the documentation of missing teeth, probing pocket depths (PPD), recession, bleeding on probing (BoP), clinical attachment level (CAL), furcation involvement, tooth mobility and plaque control record (PlaCR). Demographic details and general health profile of the participants including current intake of medications and frequency of smoking was documented using a questionnaire. CAL, PPD and BoP were recorded at 6 sites per tooth (mesio-buccal, buccal, disto-buccal, disto-oral, oral, mesio-oral) using a pressure calibrated computer aided Florida Probe handpiece. Any bleeding spot appearing within 30 seconds after probing was recorded as a BoP-positive site. Furcation involvement was determined using a manual furcation probe (Nabers Probe). The total amount of periodontal inflammation present in each patient was calculated from the recorded BoP, CAL and PPD scores using the PISA-Index. Collected samples were quality-controlled hosted by the certified centralized biobank of the medical faculty of the University of Würzburg. […]
Saliva samples were prepared as above. The MMP-8 activity assay (Quickzyme, Leiden, Netherlands) was performed following provided protocols. In brief, reagents were prepared as described by protocols. […] Absorbance was measured at 405 nm in a microplate reader (Tecan Infinite F50, Crailsheim, Germany) at 0, 2, 4 and 6 h. […]

[2] = biological target: MMP mix (a mixture of MMPs 1, 8, and 9); assay: cell-based or functional assay
[3] = control saliva samples, per patient, sensors in mixture, 25 µM per sensor, 15 min at 37 °C

maximum cleavage (MMP-1; MMP-1, 15 min, concentrations ranging from 1 to 10 nM): 7%
maximum cleavage (MMP-9; MMP-9, 15 min, concentrations ranging from 1 to 10 nM): 10%
Molecule: CC[C@H](C)[C@H](NC(=O)CNC(=O)[C@H](CCC(N)=O)NC(=O)[C@@H]1CCCN1C(=O)CNC(=O)[C@H](CO)NC(=O)CNC(=O)[C@H](CO)NC(=O)CNC(C)=O)C(=O)N[C@@H](C)C(=O)NCC(=O)N[C@@H](C)C(=O)NCC(=O)N[C@@H](CO)C(=O)NCC(=O)N[C@@H](CO)C(=O)NCc1ccc(C[N+](CC)(CC)CC(=O)Nc2c(C)cccc2C)cc1 [S1, Ac-GSGS-GPQGIAGA-GSGS-Den] (Ac-GSGSGPQGIAGAGSGS[X1]-{NH(2,6-Me2-phenyl)})

cleavage rate (multiplexing) (MMP-1): cleaved most effectively
cleavage rate (multiplexing) (MMP-8): cleaved most effectively
Molecule: SY3: sensor from PSL-Y3: Y3a with C-terminal L-azidohomoalanine clicked to fluorescent dye DBCO-Sulfo-Cy5 (Ac-GSGSGPLALVGAGSGS[Aha′](DBCO‑Sulfo‑Cy5))
Cleavage SY3 [1, 3]: 1.39% (2×) and 3.77% and 3.71% and 2.96% and 0.34% and 4.60% and 1.80% and 5.40% and 0.29% and 11.05% and 1.60% and 1.07% and 0.38% and 0.37% and 0.31%
cleavage in saliva from patients compared to saliva from healthy donors [1]: discriminated against periodontitis

cleavage rate (multiplexing) (MMP-1): not MMP-1 or MMP-9
cleavage rate (multiplexing) (MMP-8): responded to MMP-8
cleavage rate (multiplexing) (MMP-9; sensors in mixture, 17.5 nM MMP-9, incubation 15 minutes): not MMP-1 or MMP-9
Molecule: SY5: sensor from PSL-Y5: Y5a with C-terminal L-azidohomoalanine clicked to fluorescent dye AFDye488-DBCO (Ac-GSGSGALELVGAGSGS[Aha′](AFDye488‑DBCO))
Cleavage SY5 [1, 3]: 2.55% and 4.69% and 2.64% and 2.11% and 0.17% (2×) and 3.56% and 2.25% and 4.88% and 0.14% and 11.04% and 2.84% and 0.18% (2×) and 0.16% and 0.15%
cleavage in saliva from patients compared to saliva from healthy donors [1]: discriminated against periodontitis

cleavage rate (4 nM MMP mix, 5 min, HPLC) [2]: < 1%
cleavage rate (8 nM MMP mix, 5 min, HPLC) [2]: > 20%
Molecule: Ac-GSGSGPQGIAGAGSGS-Den [Sensor S1, Ac-GSGS-GPQGIAGA-GSGS-Den]
